Where a chain is given by its changes, count along the chain named.

For test [1], the target named is T1, PHF-tau (paired helical filament-tau), partially purified from postmortem cortex of an Alzheimer patient (human, UniProt P10636-8 2-441, limits assumed, hyperphosphorylated (sites not given)).
T1 construct: This is an aggregated, hyperphosphorylated brain-derived preparation, not a single defined chain
In words: SPR (ProteOn XPR36 or Biacore T200). For orientation: SPR reads the build-up and loss of mass on a sensor chip optically.

In test [2] the target is T2, soluble tau (control tau; recombinant 2N4R tau, SEQ ID NO:31) (human, UniProt P10636 2-758).
T2 construct: also called Sol-tau; recombinant WT tau
In words: direct ELISA on 2N4R tau coated at 1 ng/mL, O.D. 450 nm. How it is done:
(§1) Binding to recombinant WT (2N4R; SEQ ID NO:31) tau was analyzed by ELISA where full-length Tau protein (1 ng/mL or 10 ng/mL) was directly coated to the plate and incubated with different concentrations of either recombinantly- or hybridoma produced PT82 antibody (FIG. 2). After incubation with antibodies, plates were again washed and 50 μL per well of HRPO labelled anti-mouse antibody (GE Healthcare) (diluted 1:10000 in blocking buffer) was added. After another washing step detection was performed with “One step” TMB (Thermo Scientific) according to the manufacturers' instructions. Plates were analysed in EnVision® 2102 Multilabel Reader (Perkin Elmer, Waltham, Mass., USA). Binding curves were generated using GraphPad Prism7.0 software. […] No substantial difference has been observed between binding profiles of recombinant and hybridoma produced antibodies.
For orientation: ELISA stands for enzyme-linked immunosorbent assay.

Test [3] has as its target T2, soluble tau (control tau; recombinant …). The test is described as follows: direct ELISA on 2N4R tau coated at 10 ng/mL, O.D. 450 nm. How it is done: as §1
Test [4] concerns the target T3, 103 122 ….
T3 construct: Linear 20-mer made on the solid support of the pepscan array
T3 peptide: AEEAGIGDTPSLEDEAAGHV
In words: pepscan-based ELISA on the array of linear 20-mer Tau441 peptides. How it is done: (§2) The binding of antibodies (recombinantly expressed as IgG2a) to each of the synthesized peptides was tested in a pepscan-based ELISA. The peptide arrays were incubated with primary antibody solution (overnight at 4° C.). After washing, the peptide arrays were incubated with a 1/1000 dilution of an appropriate antibody peroxidase conjugate (SBA) for one hour at 25° C. After washing, the peroxidase substrate 2,2′-azino-di-3-ethylbenzthiazoline sulfonate (ABTS) and 20 μl/ml of 3 percent H2O2 were added. After one hour, the color development was measured. The color development was quantified with a charge coupled device (CCD)—camera and an image processing system.

Test [5] has as its target T4, 121 140 ….
T4 construct: Linear 20-mer made on the solid support of the pepscan array; also called Tau441 peptide 121-140
T4 peptide: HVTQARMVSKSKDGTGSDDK
The test is described as above. How it is done:
as §2

Test [6] concerns the target T5, 105 124 ….
T5 construct: Linear 20-mer made on the solid support of the pepscan array; also called Tau441 peptide 105-124
T5 peptide: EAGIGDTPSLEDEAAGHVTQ
Described as above. How it is done: as §2

Test [7] deals with T6, 107 126 ….
T6 construct: Linear 20-mer made on the solid support of the pepscan array; also called Tau441 peptide 107-126
T6 peptide: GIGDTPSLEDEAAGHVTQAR
Described as above. How it is done: as §2

The target of test [8] is T7, 109 128 ….
T7 construct: Linear 20-mer made on the solid support of the pepscan array; also called Tau441 peptide 109-128
T7 peptide: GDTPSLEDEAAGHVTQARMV
The test is described as above. The procedure:
as §2

Test [9] has as its target T8, 111 130 ….
T8 construct: Linear 20-mer made on the solid support of the pepscan array; also called Tau441 peptide 111-130
T8 peptide: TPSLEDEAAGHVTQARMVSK
Described as above. The procedure: as §2

Test [10] addresses T9, 113 132 ….
T9 construct: Linear 20-mer made on the solid support of the pepscan array; also called Tau441 peptide 113-132
T9 peptide: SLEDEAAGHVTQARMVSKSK
Described as above. The procedure: as §2

Test [11] addresses T10, 115 134 ….
T10 construct: Linear 20-mer made on the solid support of the pepscan array; also called Tau441 peptide 115-134
T10 peptide: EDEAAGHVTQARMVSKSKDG
The test is described as above. The procedure:
as §2

In test [12] the target is T11, 117 136 ….
T11 construct: Linear 20-mer made on the solid support of the pepscan array; also called Tau441 peptide 117-136
T11 peptide: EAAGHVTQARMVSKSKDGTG
Described as above. How it is done:
as §2

The target of test [13] is T12, 119 138 ….
T12 construct: Linear 20-mer made on the solid support of the pepscan array
T12 peptide: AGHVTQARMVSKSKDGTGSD
Described as above. The procedure: as §2

Test [14] addresses T2, soluble tau (control tau; recombinant …). In words: SPR (ProteOn XPR36 or Biacore T200); central value of the cell.
Test [15] has the same target. In words: ELISA on coated soluble tau, anti-human Fc:HRP, 5-fold dilutions from 5 ug/ml. The procedure:
Colonies from this electroporation were picked for the ELISA screen and assessment of Fab expression. Briefly, Maxisorp 96 well plates were coated with soluble Tau protein. Fab colonies were grown in 2×YT media and Fab expression was induced with IPTG. ELISA plates were washed and Fab secreted into the E. coli media was added to each ELISA plate. Plates were washed and Anti-Fab′2:HRP (Jackson ImmunoResearch) was added to the ELISA plates. Plates were washed and chemiluminescent detection reagent was added and plates were read on a Perkin Elmer EnVision plate reader for luminescence.
Positive clones were sequenced in both VH and VL. Unique sequences were cloned into IgG gene expression constructs for expression and purification as full length IgG1 molecules. IgG constructs were transfected into CHO-Expi cells and IgG protein was purified using MabSelectSure resin. Antibodies were then tested in an ELISA for binding to soluble Tau, using anti-human Fc:HRP (Jackson ImmunoResearch), to detect IgG binding.
The ELISA was done as described for Fabs except that antibodies were tested at five 5-fold dilutions starting at 5 μg/mL in PGS and anti-human Fc:HRP (Jackson ImmunoResearch) was used to detect IgG binding.

T2 sequence (P10636 other isoform, or with tags, fused parts or gaps limits assumed): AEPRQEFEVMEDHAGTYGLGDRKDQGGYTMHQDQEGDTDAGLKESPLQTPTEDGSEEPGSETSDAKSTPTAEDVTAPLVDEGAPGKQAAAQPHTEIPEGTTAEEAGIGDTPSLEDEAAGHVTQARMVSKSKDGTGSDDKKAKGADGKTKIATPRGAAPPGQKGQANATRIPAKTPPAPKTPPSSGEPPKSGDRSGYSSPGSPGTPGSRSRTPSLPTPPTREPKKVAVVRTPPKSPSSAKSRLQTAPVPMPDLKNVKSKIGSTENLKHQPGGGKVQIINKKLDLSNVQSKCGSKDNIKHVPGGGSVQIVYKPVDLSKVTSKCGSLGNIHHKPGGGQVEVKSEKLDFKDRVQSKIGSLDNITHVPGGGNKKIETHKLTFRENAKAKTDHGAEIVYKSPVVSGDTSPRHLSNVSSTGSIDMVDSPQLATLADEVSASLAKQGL
T1 sequence (P10636 other isoform, or with tags, fused parts or gaps limits assumed): as above

B1: PT82 mAb, recombinantly expressed (mouse IgG2a/kappa) (antibody, V domains shown)
VH: EVKLEESGGGLVQPGGSMKLSCVASGFTFSNYWMNWIRQSPEKGLEWVAQIRLQSDNYATRYAESVKGRFTISRDESKTSVYLQMNNLRTEDTGIYYCTGGTTYWGQGTLVTVSA
VL: DIVMTQSQKFMSTSVGDRVSITCKASQNVGTAVAWYQQKPGQSPKLLIYSASIRYTGVPDRFTGSGSGTDFTLTINYMQSEDLADYFCQQFSSYPYTFGGGTKLEIK
notes: also called recombinant PT82; murine PT82
With B1, binding in test [1] was characterised by a dissociation constant (Kd) of 2.85 nM. For the same molecule, the 50% effective concentration (EC50 (read off the curve)) was approximately 0.05 µg/mL in test [2] and approximately 0.01 µg/mL in test [3]. The “pepscan ELISA signal (PT82)” value was 68 in [4]; 68 in [5]; 2900 in [6]; 2920 in test [7]; 2920 in test [8]; 2930 in test [9]. Further, the “pepscan ELISA signal (PT82)” value amounted to 2930 in [10], 2920 in test [11], 2920 in test [12] and 2910 in test [13].

B2: PT82 Fab (chimeric: mouse variable domains on human IgG1/kappa constant domains, His tag at the C-terminus of the heavy chain) (Fab, V domains shown)
VH: B1 VH
VL: B1 VL
notes: The Fab has mouse variable domains fused to human IgG1/kappa constant domains, with a His tag at the C-terminus of the heavy chain; also called Fab fragment of PT82
In the case of B2, the Kd in test [1] worked out at 5.01 nM; in test [14], 1.84 nM.

B3: PT82 from hybridoma supernatant (hybridoma-produced mouse monoclonal antibody) (antibody, V domains shown)
VH: B1 VH
VL: B1 VL
notes: This is the native hybridoma antibody; also called hybridoma produced PT82
As for B3, the “EC50 (read off the curve)” value in [2] is approximately 0.02 µg/mL; in test [3], approximately 0.004 µg/mL.

B4: PT1B779 (humanized PT82, full length IgG1) (antibody, V domains shown)
VH: EVQLVESGGGLVQPGGSLRLSCAASGFTFSNYWMNWIRQAPGKGLEWVGQIRLQDDNYATRYAASVKGRFTISRDDSKNSVYLQMNSLKTEDTAVYYCTGGTTYWGQGTLVTVSS
VL: DIQMTQSPSFLSASVGDRVTITCKASQNVGTKVAWYQQKPGKAPKLLIYSASIRYTGVPSRFSGSGSGTEFTLTISSMQPEDFATYYCQQFSSYPYTFGQGTKLEIK
Consider B4, for which the binding result in [15] is given as “binds”.

B5: PT1B778 (humanized PT82, full length IgG1) (antibody, V domains shown)
VH: B4 VH with D55S, A59V
VL: B4 VL with K32R
Turning to B5, the binding result in [15] is “binds”.

B6: PT1B780 (humanized PT82, full length IgG1) (antibody, V domains shown)
VH: B4 VH with D55S, V81L
VL: B4 VL with M78L
Turning to B6, the binding result in test [15] is “binds”.

B7: PT1B782 (humanized PT82, full length IgG1) (antibody, V domains shown)
VH: B4 VH with D55Y
VL: B4 VL with M4L
With B7, in test [15], the binding result is “binds”.

B8: PT1B781 (humanized PT82, full length IgG1) (antibody, V domains shown)
VH: B4 VH with D55R
VL: B4 VL
In the case of B8, the binding result in test [15] is “binds”.

For orientation: Kd means the equilibrium constant for the complex coming apart. As a reminder, the EC50 (read off the curve) is the concentration needed to bring the measured effect to its halfway point.

Values taken from patent publication US20190270793A1 (Janssen / Centocor, published 2019).
